Measurements published in patent US20160159865A1 (CHILDREN S HOSPITAL AND RESEARCH CENTER AT OAKLAND, published 2016).

Biological target: T1, human factor H (human, UniProt P08603 19-1231)
T1 construct: Purified human factor H was used in the ELISA; also called fH; human fH
Test: ELISA, fHbp (2 µg/ml) on plate, human factor H titrated

T1 sequence (P08603 19-1231 Y402H/T493R limits assumed): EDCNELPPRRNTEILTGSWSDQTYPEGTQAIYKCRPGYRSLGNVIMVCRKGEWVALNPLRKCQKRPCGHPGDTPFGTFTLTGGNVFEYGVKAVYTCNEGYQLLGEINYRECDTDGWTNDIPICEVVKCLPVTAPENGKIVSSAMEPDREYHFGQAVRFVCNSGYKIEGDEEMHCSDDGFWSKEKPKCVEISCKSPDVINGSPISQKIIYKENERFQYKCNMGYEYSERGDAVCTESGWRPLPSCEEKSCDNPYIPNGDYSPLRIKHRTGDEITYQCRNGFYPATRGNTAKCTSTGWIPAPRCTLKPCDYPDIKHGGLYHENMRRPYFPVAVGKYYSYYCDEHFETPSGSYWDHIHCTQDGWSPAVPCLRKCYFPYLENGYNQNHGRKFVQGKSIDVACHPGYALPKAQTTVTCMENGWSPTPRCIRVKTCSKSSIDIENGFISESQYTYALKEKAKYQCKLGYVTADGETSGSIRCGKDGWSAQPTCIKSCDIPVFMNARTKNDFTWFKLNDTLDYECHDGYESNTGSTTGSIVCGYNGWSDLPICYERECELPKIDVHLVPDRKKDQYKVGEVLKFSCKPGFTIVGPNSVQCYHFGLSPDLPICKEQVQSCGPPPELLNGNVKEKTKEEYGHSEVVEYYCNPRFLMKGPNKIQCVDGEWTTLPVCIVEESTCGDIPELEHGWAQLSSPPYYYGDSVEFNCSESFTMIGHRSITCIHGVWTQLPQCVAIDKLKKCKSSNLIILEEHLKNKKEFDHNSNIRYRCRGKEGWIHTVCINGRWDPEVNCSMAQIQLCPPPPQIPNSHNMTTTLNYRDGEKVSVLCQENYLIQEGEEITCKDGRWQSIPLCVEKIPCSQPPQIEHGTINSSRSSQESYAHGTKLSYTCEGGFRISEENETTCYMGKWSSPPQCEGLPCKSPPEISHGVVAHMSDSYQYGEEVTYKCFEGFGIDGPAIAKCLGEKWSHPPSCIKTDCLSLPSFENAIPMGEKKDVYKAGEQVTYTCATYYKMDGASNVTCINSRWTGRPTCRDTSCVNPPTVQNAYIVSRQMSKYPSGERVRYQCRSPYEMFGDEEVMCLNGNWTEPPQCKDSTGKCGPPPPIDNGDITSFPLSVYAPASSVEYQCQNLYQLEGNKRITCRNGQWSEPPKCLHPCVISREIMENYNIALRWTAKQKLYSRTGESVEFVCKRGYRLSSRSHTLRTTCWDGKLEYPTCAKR

B1: fHbp ID 79 H223R mutant (other)
chain: CSSGGGGSGSGGVAADIGTGLADALTTPLDHKDKGLKSLTLEDSIPQNGTLTLSAQGAEKTFKAGDKDNSLNTGKLKNDKISRFDFVQKIEVDGQTITLASGEFQIYKQDHSAVVALQIEKINNPDKIDSLINQRSFLVSGLGGEHTAFNQLPGGKAEYHGKAFSSDDAGGKLTYTIDFAAKQGHGKIEHLKTPEQNVELASAELKADEKSHAVILGDTRYGSEEKGTYRLALFGDRAQEIAGSATVKIGEKVHEIGIAGKQ
notes: Purified recombinant mutant
binding result: no binding (tested: human factor H 0.0012 to 20 µg/ml)
